Laboratory results reported in US20030171255.
Like-named read-outs stand apart in the source and are kept apart here.

T1: recombinant DARPP-32 phosphorylated in vitro at Ser137 by CK1
T1 sequence (Q9UD71 1-204, species assumed, looked up): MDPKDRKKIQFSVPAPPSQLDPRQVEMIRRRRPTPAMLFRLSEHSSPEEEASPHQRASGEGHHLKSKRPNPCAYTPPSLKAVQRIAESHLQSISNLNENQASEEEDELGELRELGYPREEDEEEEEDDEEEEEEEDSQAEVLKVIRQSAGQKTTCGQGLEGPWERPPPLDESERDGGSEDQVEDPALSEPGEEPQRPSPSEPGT

B1: recombinant His-tagged PP2Cg (protein phosphatase 2C gamma isoform) cloned from rat striatum (protein)
chain: MGAYLSQPNTVKCSGDGVGAPRLPLPYGFSAMQGWRVSMEDAHNCIPELDNETAMFSVYDGHGGEEVALYCAKYLPDIIKDQKAYKEGKLQKALQDAFLAIDAKLTTDEVIKELAQIAGRPTEDEDDKEKVADEDDVDNEEAALLHEEATMTIEELLTRYGQNCQKGPPHTKSGTGIGDEPEPQGLNGEAGPEDPSRETPSQENGPTAKGHTGPSSNSDHGTEAGQIGEPGTATGEAGPSCSSASDKLPRVAKSKFFEDSEDESDEVEEEEDDSEECSEDEDGYSSEEAENEEDEDDTEEAEEDDDEEMMVPGMEGKEEPGSDSGTTAVVALIRGKQLIVANAGDSRCVVSEAGKALDMSYDHKPEDEVELARIKNAGGKVTMDGRVNGGLNLSRAIGDHFYKRNKNLPPQEQMISALPDIKVLTLTDDHEFMVIACDGIWNVMSSQEVVDFIQSKISQRDENGELRLLSSIVEELLDQCLAPDTSGDGTGCDNMTCIIICFKPRNTVELQPESGKRKLEEALSTEGAEENGNSDKKKAKRD
B2: recombinant His-tagged PP2Ca (protein phosphatase 2C alpha isoform) cloned from rat striatum (protein)
chain: MGAFLDKPKMEKHNAQGQGNGLRYGLSSMQGWRVEMEDAHTAVIGLPSGLETWSFFAVYDGHAGSQVAKYCCEHLLDHITNNQDFKGSAGAPSVENVKNGIRTGFLEIDEHMRVMSEKKHGADRSGSTAVGVLISPQHTYFINCGDSRGLLCRNRKVHFFTQDHKPSNPLEKERIQNAGGSVMIQRVNGSLAVSRALGDFDYKCVHGKGPTEQLVSPEPEVHDIERSEEDDQFIILACDGIWDVMGNEELCDFVRSRLEVTDDLEKVCNEVVDTCLYKGSRDNMSVILICFPNAPKVSAEAVKKEAELDKYLENRVEEIIKKQGEGVPDLVHVMRTLASENIPSLPPGGELASKRNVIEAVYNRLNPYKNDDTDSASTDDMW

What was measured:
[1] = tested on: recombinant DARPP-32 phosphorylated in vitro at Ser137 by CK1
[2] = target: T1, recombinant DARPP-32 phosphorylated in …; remark: listed apart in the source

Molecule	dephosphorylation of phospho-Ser137-DARPP-32 (release of 32P) [1]	KM [2]	Vmax, µmol mg^-1 min^-1 (µmol mg^-1 min^-1) [2]	dephosphorylation of phospho-Ser137-DARPP-32 (release of 32P) [2]	kcat [2]	kcat/KM [2]	other results
CK1 (casein kinase 1) obtained from New England BioLabs							stoichiometry of in vitro phosphorylation at Ser137 (recombinant DARPP-32): stoichiometry of 1 mol/mol
recombinant His-tagged PP2Cd (protein phosphatase 2C delta isoform) cloned from rat striatum	PP2Cd did not dephosphorylate phospho-Ser137-DARPP-32						
recombinant His-tagged PP2Cb (protein phosphatase 2C beta isoform) cloned from rat striatum	the PP2Ca, b and g demonstrated similar initial rates of dephosphorylation						KM [1]: 25.3 µM; Vmax, µmol mg^-1 min^-1 (µmol mg^-1 min^-1) [1]: 0.99; kcat [1]: 0.78 s⁻¹; kcat/KM [1]: 31000 M⁻¹ s⁻¹
B1		7 µM	0.31	the PP2Ca, b and g demonstrated similar initial rates of dephosphorylation	0.32 s⁻¹	45000 M⁻¹ s⁻¹	
B2		13.1 µM	0.39	the PP2Ca, b and g demonstrated similar initial rates of dephosphorylation	0.31 s⁻¹	23000 M⁻¹ s⁻¹	
